Experimental data as given in patent US8993719B2, “Methods and compositions related to mutant Kunitz domain I of TFPI-2” (The Regents of the University of California, priority 2005, dated 2015).
Substitutions are numbered along the chain they refer to. Numbers in names are those of the source. Where “and” joins values, the source holds several entries; their conditions need not be identical. Equal values may be shown once. Entries after “also recorded” stand apart in the source; their conditions may differ.

Key:
kallikrein = kallikrein (Homo sapiens, UniProt P03952); details: Petersen et al 1996; cited from earlier work
Chain of kallikrein (P03952 391-638 limits assumed): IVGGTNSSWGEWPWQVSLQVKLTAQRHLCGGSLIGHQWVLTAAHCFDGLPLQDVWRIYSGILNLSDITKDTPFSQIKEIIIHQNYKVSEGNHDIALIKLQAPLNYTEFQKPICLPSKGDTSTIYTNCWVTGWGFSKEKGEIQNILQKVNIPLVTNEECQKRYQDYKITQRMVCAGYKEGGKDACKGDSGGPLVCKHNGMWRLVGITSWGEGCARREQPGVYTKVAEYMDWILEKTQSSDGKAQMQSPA
Chain of kallikrein (P03952 20-390 partner limits assumed): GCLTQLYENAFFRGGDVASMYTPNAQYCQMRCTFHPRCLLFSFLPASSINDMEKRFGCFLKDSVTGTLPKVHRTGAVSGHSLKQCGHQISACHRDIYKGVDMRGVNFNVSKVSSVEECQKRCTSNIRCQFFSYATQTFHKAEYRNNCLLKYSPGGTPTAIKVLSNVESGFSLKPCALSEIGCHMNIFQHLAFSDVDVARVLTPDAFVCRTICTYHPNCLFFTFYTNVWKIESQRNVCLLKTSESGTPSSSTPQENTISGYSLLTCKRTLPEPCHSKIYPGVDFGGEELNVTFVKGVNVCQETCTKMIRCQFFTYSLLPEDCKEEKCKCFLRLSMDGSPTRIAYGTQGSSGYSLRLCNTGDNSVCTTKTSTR

[1] = test system: mouse tail vein bleeding model; test: Mouse tail vein bleeding model; assay type: in vivo; details: intravenously, about 100 microgram/mouse, compared to saline control
Text: A mouse tail vein bleeding model has been described to study the efficacy of a snake plasmin inhibitor (Masci et al. Blood Coagulation and Fibrinolysis 2000, Vol 11, pages 385-393). […] The doses of the plasmin inhibitors used in these experiments were similar to that used during human CPB (cardiopulmonary bypass) surgery, adjusted to the mouse weight. The Animal Ethics Committee of UCLA approved all mice experiments and the dose used in human surgery adjusted to mouse weight was a realistic basis for these initial studies. The serum BUN/Creatinine levels were normal after two days and seven days following administration of the drug.

Human plasmin [2] = target: T1, Human plasmin (human, UniProt P00747 97-810, limits assumed); test: plasmin inhibition assay, residual amidolytic activity on S-2251, quadratic binding fit
T1 construct: Bought enzyme
T1 sequence (P00747 97-810 limits assumed): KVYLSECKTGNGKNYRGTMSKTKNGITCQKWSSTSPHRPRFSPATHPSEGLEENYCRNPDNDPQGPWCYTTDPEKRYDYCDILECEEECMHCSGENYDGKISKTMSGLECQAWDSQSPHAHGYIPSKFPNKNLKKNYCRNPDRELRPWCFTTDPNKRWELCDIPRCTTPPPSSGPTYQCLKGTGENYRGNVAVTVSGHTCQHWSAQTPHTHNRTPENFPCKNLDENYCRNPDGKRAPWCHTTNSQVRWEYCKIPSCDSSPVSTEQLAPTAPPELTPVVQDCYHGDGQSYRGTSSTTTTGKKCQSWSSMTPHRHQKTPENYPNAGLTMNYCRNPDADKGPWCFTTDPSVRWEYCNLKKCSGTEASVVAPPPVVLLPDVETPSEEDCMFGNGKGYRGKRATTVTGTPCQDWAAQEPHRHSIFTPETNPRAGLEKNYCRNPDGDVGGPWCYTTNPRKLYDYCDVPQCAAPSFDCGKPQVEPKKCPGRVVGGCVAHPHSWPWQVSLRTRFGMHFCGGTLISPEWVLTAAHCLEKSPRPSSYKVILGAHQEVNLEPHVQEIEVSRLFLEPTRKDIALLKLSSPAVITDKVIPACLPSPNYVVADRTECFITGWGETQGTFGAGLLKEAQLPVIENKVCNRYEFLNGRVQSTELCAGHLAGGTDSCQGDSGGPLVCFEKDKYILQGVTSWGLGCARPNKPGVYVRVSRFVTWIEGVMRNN
Method: (§1) Plasmin Inhibition Assays. […] The chromogenic substrate S-2251 was then added, and residual amidolytic activity was measured in a Molecular Devices UVmax kinetic microplate reader at different end points (0.5 and 1 hr) and S2251 (0.5 and 1 mM) concentrations. Plasmin inhibitory data were analyzed according to the quadratic binding expression.
(§2) The incubation time was 1 hr at 37° C. and substrate concentration was 1 mM for the remaining activity measurements.

Mouse plasmin [3] = target: Mouse plasmin (mouse, UniProt P20918 98-812, limits assumed); test: mouse plasmin inhibition assay
Chain of Mouse plasmin (P20918 98-812 limits assumed): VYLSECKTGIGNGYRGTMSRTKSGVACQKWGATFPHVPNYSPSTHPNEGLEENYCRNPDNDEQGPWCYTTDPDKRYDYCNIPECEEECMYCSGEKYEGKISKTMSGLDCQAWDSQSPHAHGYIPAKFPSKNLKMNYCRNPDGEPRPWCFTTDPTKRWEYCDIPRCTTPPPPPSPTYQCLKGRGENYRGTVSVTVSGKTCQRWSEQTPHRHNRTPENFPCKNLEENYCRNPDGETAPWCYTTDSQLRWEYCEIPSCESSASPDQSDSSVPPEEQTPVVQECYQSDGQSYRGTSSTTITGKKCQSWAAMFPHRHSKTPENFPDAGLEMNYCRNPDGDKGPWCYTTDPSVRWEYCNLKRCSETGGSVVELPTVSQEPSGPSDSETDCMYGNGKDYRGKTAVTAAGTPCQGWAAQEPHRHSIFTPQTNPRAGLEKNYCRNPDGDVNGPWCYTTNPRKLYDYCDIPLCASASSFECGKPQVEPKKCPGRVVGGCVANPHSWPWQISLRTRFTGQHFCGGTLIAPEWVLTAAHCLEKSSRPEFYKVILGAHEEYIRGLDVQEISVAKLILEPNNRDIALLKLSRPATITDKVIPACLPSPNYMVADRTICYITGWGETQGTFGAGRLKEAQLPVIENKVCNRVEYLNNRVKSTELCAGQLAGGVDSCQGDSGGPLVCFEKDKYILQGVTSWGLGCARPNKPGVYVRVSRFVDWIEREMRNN

factor XIa = factor XIa (Homo sapiens, UniProt P03951); details: Petersen et al 1996; cited from earlier work
Chain of factor XIa (P03951 388-625 limits assumed): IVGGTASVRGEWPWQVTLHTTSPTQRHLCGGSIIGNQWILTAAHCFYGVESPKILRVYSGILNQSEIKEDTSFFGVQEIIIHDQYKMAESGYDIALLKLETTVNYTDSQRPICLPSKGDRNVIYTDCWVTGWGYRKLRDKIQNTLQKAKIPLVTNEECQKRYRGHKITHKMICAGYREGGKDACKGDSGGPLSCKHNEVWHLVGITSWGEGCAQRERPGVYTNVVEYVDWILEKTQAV
Chain of factor XIa (P03951 19-387 partner limits assumed): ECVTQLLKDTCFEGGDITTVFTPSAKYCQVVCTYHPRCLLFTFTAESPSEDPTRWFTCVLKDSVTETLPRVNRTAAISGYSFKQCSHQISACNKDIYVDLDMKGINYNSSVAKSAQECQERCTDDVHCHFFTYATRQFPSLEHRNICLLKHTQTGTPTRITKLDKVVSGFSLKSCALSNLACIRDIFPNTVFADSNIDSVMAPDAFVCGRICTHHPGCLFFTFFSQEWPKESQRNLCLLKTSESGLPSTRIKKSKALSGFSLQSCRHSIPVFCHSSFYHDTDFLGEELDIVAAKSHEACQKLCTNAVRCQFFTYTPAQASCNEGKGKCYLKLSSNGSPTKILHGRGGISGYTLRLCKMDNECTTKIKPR

Human plasmin [4] = target: T1, Human plasmin; test: plasmin inhibition assay, residual amidolytic activity on S-2251
Method: as §1
In control experiments, it was first studied if there was any substrate-induced displacement of bound inhibitor by increasing substrate concentrations.

mouse plasmin [5] = target: mouse plasmin (Mus musculus, UniProt P20918); test: Mouse plasmin inhibition; assay type: biochemical; details: 1 μM inhibitor; FIG. 6
Chain of mouse plasmin (P20918 582-812 limits assumed): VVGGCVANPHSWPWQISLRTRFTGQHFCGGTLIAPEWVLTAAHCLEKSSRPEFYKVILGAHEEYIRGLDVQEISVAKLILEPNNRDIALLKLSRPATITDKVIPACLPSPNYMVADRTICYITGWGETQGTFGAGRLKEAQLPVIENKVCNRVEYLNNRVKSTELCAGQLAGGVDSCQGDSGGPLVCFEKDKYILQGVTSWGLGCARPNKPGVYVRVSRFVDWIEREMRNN
Chain of mouse plasmin (P20918 98-581 partner limits assumed): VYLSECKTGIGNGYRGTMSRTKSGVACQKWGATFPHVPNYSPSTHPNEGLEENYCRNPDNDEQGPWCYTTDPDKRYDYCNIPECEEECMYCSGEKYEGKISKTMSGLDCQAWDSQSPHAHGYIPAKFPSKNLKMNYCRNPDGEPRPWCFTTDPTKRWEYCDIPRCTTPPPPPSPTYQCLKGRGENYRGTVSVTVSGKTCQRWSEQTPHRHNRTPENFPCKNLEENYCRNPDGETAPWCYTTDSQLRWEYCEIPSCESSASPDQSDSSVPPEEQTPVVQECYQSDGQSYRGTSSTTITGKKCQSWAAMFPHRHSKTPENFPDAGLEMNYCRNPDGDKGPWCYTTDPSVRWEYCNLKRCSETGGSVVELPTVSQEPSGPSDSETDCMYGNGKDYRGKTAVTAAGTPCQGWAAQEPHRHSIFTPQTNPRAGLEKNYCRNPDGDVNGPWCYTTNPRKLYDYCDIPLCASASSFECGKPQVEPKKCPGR
Text: Both WT KD1 and L26R inhibited mouse plasmin effectively. […] Since both the wild-type and the mutant inhibit mouse plasmin, one can use the mutant to show efficacy in vivo in an animal model of bleeding.

[6] = test system: intrinsic pathway of blood coagulation; test: aPTT (activated partial thromboplastin time) of normal plasma; assay type: biochemical; details: normal human plasma, 5 min at 37° C., FIG. 5
Method: Seventy-five microliter of 25 mM CaCl2 prewarmed to 37° C. was then added and the time needed to form the clot through the intrinsic pathway of blood coagulation was noted.
A common procedure to test inhibition of clotting is to examine the aPTT (activated partial thromboplastin time) of normal plasma. In this test, surface activator plus phospholipid was mixed with normal plasma in equal amounts (75 microliter). […] Seventy-five microliter of 25 mM CaCl2 prewarmed to 37° C. was then added and the time needed to form the clot was noted.
In the aPTT system, coagulation is initiated by the activation of factor XII to Factor XIIa by contact phase involving the kallikrein system. Factor XIIa then activates factor XI to factor XIa in the coagulation cascade.

Human plasmin [7] = target: T2, Human plasmin (Homo sapiens, UniProt P00747); test: Plasmin inhibition assay (residual amidolytic activity, chromogenic substrate S-2251); assay type: biochemical; details: for fold stronger binding to plasmin than WT KD1: relative to WT KD1
T2 construct: purchased Enzyme research laborotories
T2 sequence (P00747 581-810 limits assumed): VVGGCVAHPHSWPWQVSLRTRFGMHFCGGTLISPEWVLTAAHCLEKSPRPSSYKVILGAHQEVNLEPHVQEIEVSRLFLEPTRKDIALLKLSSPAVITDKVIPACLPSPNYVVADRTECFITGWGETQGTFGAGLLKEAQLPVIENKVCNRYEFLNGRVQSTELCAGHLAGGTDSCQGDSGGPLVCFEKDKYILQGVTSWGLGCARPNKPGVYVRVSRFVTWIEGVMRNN
T2 sequence (P00747 97-580 partner limits assumed): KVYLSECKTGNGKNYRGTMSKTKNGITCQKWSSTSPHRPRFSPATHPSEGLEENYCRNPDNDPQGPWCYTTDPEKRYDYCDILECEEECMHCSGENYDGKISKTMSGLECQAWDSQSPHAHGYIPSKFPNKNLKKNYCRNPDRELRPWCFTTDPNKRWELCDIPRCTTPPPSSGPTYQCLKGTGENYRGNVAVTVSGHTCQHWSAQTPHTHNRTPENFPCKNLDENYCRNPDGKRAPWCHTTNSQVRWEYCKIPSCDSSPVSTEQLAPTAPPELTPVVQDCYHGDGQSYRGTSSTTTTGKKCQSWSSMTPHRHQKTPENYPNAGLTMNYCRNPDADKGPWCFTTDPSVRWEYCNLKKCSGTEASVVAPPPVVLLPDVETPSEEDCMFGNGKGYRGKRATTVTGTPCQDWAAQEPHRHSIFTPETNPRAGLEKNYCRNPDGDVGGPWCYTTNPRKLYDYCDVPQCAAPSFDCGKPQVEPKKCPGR
Text: Materials and methods: The chromogenic substrates H-D-Val-Leu-Lys-p-nitroanilide (S-2251) was purchased from DiaPharma Group Inc. (West Chester, Ohio). Human plasmin was purchased from Enzyme research laborotories. Bovine aprotinin (BPTI) was used from Zymogenetics. Escherichia coli strain BL21(DE3)pLys and pET28a expression vector were products of Novagen Inc. (Madison, Wis.). The QuikChange® site-directed mutagenesis kit was obtained from Stratagene (La Jolla, Calif.).
as §1

Human plasmin [8] = target: T1, Human plasmin; test: plasmin inhibition assay, 1 hr at 37° C., 1 mM S-2251
Method: as §1, §2

B1: Wild type first Kunitz-type proteinase inhibitor domain of human TFPI-2 (KD1) (other)
chain: DAAQEPTGNNAEICLLPLDYGPCRALLLRYYYDRYTQSCRQFLYGGCEGNANNFYTWEACDDACWRIEKVPKV
notes: also called WTKD1; WT KD1
- inhibition of kallikrein (kallikrein): inhibits both kallikrein and factor XIa
- reduction in blood loss [1]: 67-70%
- Kd (Human plasmin [2]): 22 nM
- Kd (Mouse plasmin [3]): ~80 nM
- inhibition of factor XIa (factor XIa): inhibits both kallikrein and factor XIa
- Ki (Human plasmin [4]): 22 nM
- inhibition of mouse plasmin at 1 μM (mouse plasmin [5]): Complete inhibition
- inhibition of intrinsic pathway of coagulation (prolongation of aPTT clotting time) ([6]; listed as KD1 WT): prolongation of the aPTT; also recorded: inhibit the intrinsic pathway of coagulation
- substrate-induced displacement of bound inhibitor (Human plasmin [7]; increasing S-2251 concentration (0.5 and 1 mM)): apparently no displacement of bound inhibitor; also recorded: not any significant substrate induced displacement of inhibitor

B2: KD1 R15K/L17R double mutant (R24K/L26R in KD1 numbering) (other)
chain: B1 chain with R24K, L26R
notes: Made from KD1 by site-directed mutagenesis, with the His tag removed
- Kd (Human plasmin [8]): 3 nM
- Ki (Human plasmin [4]): 3 nM
- fold stronger binding than WT KD1 (Human plasmin [4]): 7 fold
- fold stronger binding than the R15K mutant (Human plasmin [4]): ~2 fold

B3: KD1 L17R mutant (L26R in KD1 numbering) (other)
chain: B1 chain with L26R
notes: The His tag was removed; also called KD1 L26R; L26R KD1
- reduction in blood loss [1]: 67-70%
- Kd (Mouse plasmin [3]): ~80 nM
- Ki (Human plasmin [4]): 6 nM
- fold stronger binding than WT KD1 (Human plasmin [4]): ~4 fold
- inhibition of mouse plasmin at 1 μM (mouse plasmin [5]): Complete inhibition
- inhibition of intrinsic pathway of coagulation (prolongation of aPTT clotting time) [6]: no inhibition (prolongation) of aPTT; also recorded: loses activity as an anticoagulant; also recorded: ineffective
- inhibition of intrinsic pathway of coagulation (prolongation of aPTT clotting time) ([6]; listed as L26R KD1): no effect on clotting
- fold stronger binding to plasmin than WT KD1 (Human plasmin [7]; listed as L17R): approximately 4 fold

B4: KD1 R15K mutant (R24K in KD1 numbering) (other)
chain: B1 chain with R24K
notes: Made from KD1 by site-directed mutagenesis, with the His tag removed; also called R24K mutant
- Kd (Human plasmin [8]): 9 to 11 nM and 10 nM
- fold difference of Kd against WT KD1 (Human plasmin [8]): 2 fold
- Ki (Human plasmin [4]): 10 nM
- fold stronger binding to plasmin than WT KD1 (Human plasmin [7]): two-fold different
